{
  "source": "patent US20170335333",
  "data": [
    {"substance": "Microcin immunity protein (mcsI)", "values": [
      {"measurement": "OD600 growth of E. coli Top10 after induction with 0.125% v/v L-arabinose", "setting": "McsS-YebF fusion peptide", "result": "the OD600 reading was restored significantly compared to the un-induced and control cultures"},
      {"measurement": "OD600 growth of E. coli Top10 after induction with 0.125% v/v L-arabinose", "setting": "Microcin S peptide", "result": "the OD600 reading was restored significantly compared to the un-induced and control cultures"}
    ]}
  ]
}
